Reference: patent US20260224670

T1: EB2 of mouse neurons and mouse brain, Q8R001
T1 chain: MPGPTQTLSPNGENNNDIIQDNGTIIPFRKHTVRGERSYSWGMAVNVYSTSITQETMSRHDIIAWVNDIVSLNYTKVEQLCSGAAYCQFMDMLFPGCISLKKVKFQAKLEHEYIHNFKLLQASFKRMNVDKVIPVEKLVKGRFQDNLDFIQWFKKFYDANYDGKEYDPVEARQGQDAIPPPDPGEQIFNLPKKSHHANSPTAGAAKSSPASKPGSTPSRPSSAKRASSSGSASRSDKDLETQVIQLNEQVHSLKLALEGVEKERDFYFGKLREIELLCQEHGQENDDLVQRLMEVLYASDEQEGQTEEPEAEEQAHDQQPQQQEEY

B1: hCDKL2 (cyclin dependent kinase like 2), 3xFLAG-TwinStrep tagged (protein)
chain: MEKYENLGLVGEGSYGMVMKCRNKDTGRIVAIKKFLESDDDKMVKKIAMREIKLLKQLRHENLVNLLEVCKKKKRWYLVFEFVDHTILDDLELFPNGLDYQVVQKYLFQIINGIGFCHSHNIIHRDIKPENILVSQSGVVKLCDFGFARTLAAPGEVYTDYVATRWYRAPELLVGDVKYGKAVDVWAIGCLVTEMFMGEPLFPGDSDIDQLYHIMMCLGNLIPRHQELFNKNPVFAGVRLPEIKEREPLERRYPKLSEVVIDLAKKCLHIDPDKRPFCAELLHHDFFQMDGFAERFSQELQLKVQKDARNVSLSKKSQNRKKEKEKDDSLVEERKTLVVQDTNADPKIKDYKLFKIKGSKIDGEKAEKGNRASNASCLHDSRTSHNKIVPSTSLKDCSNVSVDHTRNPSVAIPPLTHNLSAVAPSINSGMGTETIPIQGYRVDEKTKKCSIPFVKPNRHSPSGIYNINVTTLVSGPPLSDDSGADLPQMEHQH
B2: hICK, 3xFLAG-TwinStrep tagged (protein)
chain: MNRYTTIRQLGDGTYGSVLLGRSIESGELIAIKKMKRKFYSWEECMNLREVKSLKKLNHANVVKLKEVIRENDHLYFIFEYMKENLYQLIKERNKLFPESAIRNIMYQILQGLAFIHKHGFFHRDLKPENLLCMGPELVKIADFGLAREIRSKPPYTDYVSTRWYRAPEVLLRSTNYSSPIDVWAVGCIMAEVYTLRPLFPGASEIDTIFKICQVLGTPKKTDWPEGYQLSSAMNFRWPQCVPNNLKTLIPNASSEAVQLLRDMLQWDPKKRPTASQALRYPYFQVGHPLGSTTQNLQDSEKPQKGILEKAGPPPYIKPVPPAQPPAKPHTRISSRQHQASQPPLHLTYPYKAEVSRTDHPSHLQEDKPSPLLFPSLHNKHPQSKITAGLEHKNGEIKPKSRRRWGLISRSTKDSDDWADLDDLDFSPSLSRIDLKNKKRQSDDTLCRFESVLDLKPSEPVGTGNSAPTQTSYQRRDTPTLRSAAKQHYLKHSRYLPGISIRNGILSNPGKEFIPPNPWSSSGLSGKSSGTMSVISKVNSVGSSSTSSSGLTGNYVPSFLKKEIGSAMQRVHLAPIPDPSPGYSSLKAMRPHPGRPFFHTQPRSTPGLIPRPPAAQPVHGRTDWASKYASRR
B3: CDKL5 (recombinantly expressed) (protein)
chain: MKIPNIGNVMNKFEILGVVGEGAYGVVLKCRHKETHEIVAIKKFKDSEENEEVKETTLRELKMLRTLKQENIVELKEAFRRRGKLYLVFEYVEKNMLELLEEMPNGVPPEKVKSYIYQLIKAIHWCHKNDIVHRDIKPENLLISHNDVLKLCDFGFARNLSEGNNANYTEYVATRWYRSPELLLGAPYGKSVDMWSVGCILGELSDGQPLFPGESEIDQLFTIQKVLGPLPSEQMKLFYSNPRFHGLRFPAVNHPQSLERRYLGILNSVLLDLMKNLLKLDPADRYLTEQCLNHPTFQTQRLLDRSPSRSAKRKPYHVESSTLSNRNQAGKSTALQSHHRSNSKDIQNLSVGLPRADEGLPANESFLNGNLAGASLSPLHTKTYQASSQPGSTSKDLTNNNIPHLLSPKEAKSKTEFDFNIDPKPSEGPGTKYLKSNSRSQQNRHSFMESSQSKAGTLQPNEKQSRHSYIDTIPQSSRSPSYRTKAKSHGALSDSKSVSNLSEARAQIAEPSTSRYFPSSCLDLNSPTSPTPTRHSDTRTLLSPSGRNNRNEGTLDSRRTTTRHSKTMEELKLPEHMDSSHSHSLSAPHESFSYGLGYTSPFSSQQRPHRHSMYVTRDKVRAKGLDGSLSIGQGMAARANSLQLLSPQPGEQLPPEMTVARSSVKETSREGTSSFHTRQKSEGGVYHDPHSDDGTAPKENRHLYNDPVPRRVGSFYRVPSPRPDNSFHENNVSTRVSSLPSESSSGTNHSKRQPAFDPWKSPENISHSEQLKEKEKQGFFRSMKKKKKKSQTVPNSDSPDLLTLQKSIHSASTPSSRPKEWRPEKISDLQTQSQPLKSLRKLLHLSSASNHPASSDPRFQPLTAQQTKNSFSEIRIHPLSQASGGSSNIRQEPAPKGRPALQLPGQMDPGWHVSSVTRSATEGPSYSEQLGAKSGPNGHPYNRTNRSRMPNLNDLKETAL
B4: mouse CDKL5 (endogenous) (protein)
chain: MKIPNIGNVMNKFEILGVVGEGAYGVVLKCRHKETHEIVAIKKFKDSEENEEVKETTLRELKMLRTLKQENIVELKEAFRRRGKLYLVFEYVEKNMLELLEEMPNGVPPEKVKSYIYQLIKAIHWCHKNDIVHRDIKPENLLISHNDVLKLCDFGFARNLSEGNNANYTEYVATRWYRSPELLLGAPYGKSVDMWSVGCILGELSDGQPLFPGESEIDQLFTIQKVLGPLPSEQMKLFYSNPRFHGLRFPAVNHPQSLERRYLGILNSVLLDLMKNLLKLDPADRYLTEQCLNHPTFQTQRLLDRSPSRSTKRKPYHVESSTLSNRNQSTKGAALQTHHRSNSKDIQNLSVGLPRAEEGLPANESFLNGNLAGATLSPMHTKTYQASTQPGSSSKDLTNNNIPHLLSPKEAKSKTEFDFNIDTKPSEGPGTKYLKSSTRSQQNRHSFMESSQSKAGTLQPSEKQSRHSYIDTIPQSSRSPSYRTKAKSHGALSDSKSVSNLSEARAQITETNTSRYFPSSCLDLNSPTSPTPTRHTDTRTLLSPSGRNNRNEGTLDSRRTTTRHSKTMEELKLPEHMDSSHSHSLSAPHESFSYGLGYTSPFSSQQRPHRHSMYVTRDKVRAKGLDGSLSIGQGMAARANSLQLLSPQPGEQLPPEMTVARPSVKESSREGASSFHTRQKSEGGVYHDPHSDDGTAPKENRHLYNDPVPRRVGSFYRVPSPRPDNSFHENNVSTRVSSLPSDSSSGTNHSKRQPGFDPWKSPENISHADQLKEKEKQGFFRSMKKKKKKTQTVPNTDGPDLLTLQKAIHSSSTASSRPKEWRPEKLSDLQTQSQPLKSLRKLLHLSSSTNHPASSDPRFQPLTAQQAKNSFSEIRIHPLSQATGGSSNIRQEPTPKGRPALQLPGSSLLRYNGWKHSRSRSSQPDEVIFLASHEKWKQ
B5: mouse CDKL2 (endogenous) (protein)
chain: MEKYENLGLVGEGSYGMVMKCRNKDSGRIVAIKKFLESDDDKMVKKIAMREIKLLKQLRHENLVNLLEVCKKKKRWYLVFEFVDHTILDDLKLFPNGLDYQVVQKYLFQIINGIGFCHSHNIIHRDIKPENILVSQSGVVKLCDFGFARTLAAPGEVYTDYVATRWYRAPELLVGDVKYGKAVDIWAIGCLVIEMLMGQPLFPGESDIDQLHHIMTCLGNLIPRHQELFYKNPVFAGVRLPEVKDAEAEPLESRYPKLPEAVISLAKKCLHIDPDKRPFCADLLRHDFFQMDGFAERFSQELQLKIEKDARNNSLPKKSQNRKKEKDDALGEERKTLVVQDTNADPKIKDSKVFKVKGSKIDVEKMEKGSRASNANCLHDNGTNHKGLASTSLRDCSNVNIDHSRNPGTAIPPLTHNLSAVAPGINAGMGTIPGVQNYRVDEKTKKYCNPFVKPNQPPPAGIYNMNVSTSVSGEKYLLQANKKRKEYPKADVRLPELNYNHLPELRALEGIARNSRLIKKENKCLSESRIPSLAAIDLHVSSVASHQGAGSPLSDDSEADLPRMEHQH

Target: T1, EB2 of mouse neurons and mouse brain, …

| Protein | phospho-Ser222 EB2 in transfected CDKL5 KO primary cortical neurons | further results |
| --- | --- | --- |
| B1 | pS222 EB2 is specifically increased in the neurons that express these kinases | – |
| B2 | pS222 EB2 is specifically increased in the neurons that express these kinases | – |
| B3 | pS222 EB2 is specifically increased in the neurons that express these kinases | – |
| B4 | – | pS222 EB2 in primary cortical cultures of CDKL5 KO against wild type littermates: pS222 EB2 is much lower in CDKL5 KOs |
| B5 | – | okadaic acid dependent increase of pEB2/EB2 in CDKL5 KO primary neurons after CDKL2 shRNA knockdown: Both shRNAs caused a reduction of the OA dependent increase of pEB2/EB2 |
